Reference: PMC10873206 (Nature Structural & Molecular Biology, 2024)

How the values were obtained:
neddylated CUL1–RBX1 = biological target: T1, neddylated CUL1–RBX1 (human, UniProt Q13616 1-776; P62877 5-108; Q15843 1-76, NEDD8 covalently linked to a conserved cullin lysine (WHB domain) | C terminus covalently linked to the cullin lysine); assay: cryo-EM structure; trapped chain formation complex: neddylated CUL1–RBX1, SKP1–FBXW7, K48C ubiquitin–cyclin E phosphopeptide, donor ubiquitin(1–75), UBE2R2; SEC-purified; 8.1 Å map, rigid-body fits; conditions: both partners purified
T1 construct: CUL1, human, wild type; RBX1, human, residues 5 to C terminus; NEDD8, human; purified as previously described; also called NEDD8–CUL1–RBX1; neddylated CRL1 core; source: High Five insect cells (baculovirus), co-expressed, purified (GST-sepharose, TEV cleavage, ion exchange, SEC); neddylated as previously described; not shown: GST, N-terminal, cleaved; copies: + +
T1 sequence (Q13616 whole entry, chain 1 of 3, the tested form may be a part): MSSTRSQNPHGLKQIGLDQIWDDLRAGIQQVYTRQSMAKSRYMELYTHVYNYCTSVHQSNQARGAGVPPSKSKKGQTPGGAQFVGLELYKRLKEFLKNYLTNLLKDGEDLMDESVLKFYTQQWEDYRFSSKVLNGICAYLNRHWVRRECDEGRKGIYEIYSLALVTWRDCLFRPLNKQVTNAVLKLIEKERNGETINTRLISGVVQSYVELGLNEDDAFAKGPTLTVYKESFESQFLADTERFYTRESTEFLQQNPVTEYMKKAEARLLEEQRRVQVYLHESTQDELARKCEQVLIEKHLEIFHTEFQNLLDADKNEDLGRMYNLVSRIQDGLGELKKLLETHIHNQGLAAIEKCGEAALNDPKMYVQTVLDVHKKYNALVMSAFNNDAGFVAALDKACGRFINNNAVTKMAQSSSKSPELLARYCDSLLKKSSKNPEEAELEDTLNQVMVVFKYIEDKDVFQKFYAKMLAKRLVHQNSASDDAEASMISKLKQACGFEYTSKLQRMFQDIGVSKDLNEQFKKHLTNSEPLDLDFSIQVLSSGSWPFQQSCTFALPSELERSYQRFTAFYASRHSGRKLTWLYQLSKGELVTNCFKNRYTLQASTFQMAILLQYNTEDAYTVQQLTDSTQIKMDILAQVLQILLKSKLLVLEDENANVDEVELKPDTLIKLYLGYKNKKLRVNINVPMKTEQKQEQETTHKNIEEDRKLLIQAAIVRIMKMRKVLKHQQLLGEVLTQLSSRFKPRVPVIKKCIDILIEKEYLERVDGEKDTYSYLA
T1 sequence (P62877 5-108, chain 2 of 3): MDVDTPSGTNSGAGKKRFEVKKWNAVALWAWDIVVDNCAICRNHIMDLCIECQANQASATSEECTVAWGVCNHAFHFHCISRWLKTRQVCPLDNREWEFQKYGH
T1 sequence (Q15843 1-76, chain 3 of 3): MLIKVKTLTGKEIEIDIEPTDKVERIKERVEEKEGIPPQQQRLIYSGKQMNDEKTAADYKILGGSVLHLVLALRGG

[1] = biological target: T2, His-ubiquitin(1–75)–BmDPA (human, UniProt P0CG48 1-75, C terminus (residue 75) conjugated to (E)-3-[2-(bromomethyl)-1,3-dioxolan-2-yl]prop-2-en-1-amine (BmDPA), cross-linked to Cys48 of the acceptor ubiquitin and to the UBE2R2 active site cysteine); assay: cryo-EM structure; trapped chain formation complex: neddylated CUL2–RBX1, Elongin B/C–VHL, PROTAC MZ1, K48C ubiquitin–BRD4 (352–460), donor ubiquitin(1–75), UBE2R2; SEC-purified; 7.5 Å map, rigid-body fits; conditions: both partners purified
T2 construct: ubiquitin, human, residues 1–75; also called UBD; donor ubiquitin

B1: UBE2R2 (enzyme, human, UniProt Q712K3 1-238, looked up)
chain: MAQQQMTSSQKALMLELKSLQEEPVEGFRITLVDESDLYNWEVAIFGPPNTLYEGGYFKAHIKFPIDYPYSPPTFRFLTKMWHPNIYENGDVCISILHPPVDDPQSGELPSERWNPTQNVRTILLSVISLLNEPNTFSPANVDASVMFRKWRDSKGKDKEYAEIIRKQVSATKAEAEKDGVKVPTTLAEYCIKTKVPSNDNSSDLLYDDLYDDDIDDEDEEEEDADCYDDDDSGNEES
notes: UBE2R2, human, wild type; In the trapped cryo-EM complexes the active site Cys93 is cross-linked to the BmDPA ligation mimic; in the di-ubiquitin synthesis assays it is thioesterified to 32P-labelled donor ubiquitin; also called WT (R2); UBE2R2 FL; source: E. coli Rosetta (DE3), purified (nickel-agarose or GST-sepharose, TEV, SEC); not shown: GST or 6xHis (either), N-terminal, cleaved
- binding result (neddylated CUL1–RBX1): binds
- binding result [1]: binds
